Assay [1] has as its target recombinant human amylin 3 receptor (hAMYR3) (human), P30988. Kind of assay: cell-based or functional assay.
For assay [2], the target named is recombinant human calcitonin receptor (hCT-R) (human), P30988. Kind of assay: cell-based or functional assay.

Numbered stars: 1 amine (or outer) side, 2 acyl side, 3 side chain; on linkers, the order of the positions; unused ones are H or OH. Bridge positions count the residues as written; N and C are the ends. Square brackets hold non-standard residues; d marks the D form. * marks the point of attachment. C20 diacid = O=C(O)CCCCCCCCCCCCCCCCCCC(=O)*; γGlu = O=C(O)[C@H](CCC(=O)[*:2])N[*:1]; Hyp = O=C(O)[C@@H]1C[C@@H](O)CN1; NMeI = CC[C@H](C)[C@H](NC)C(=O)O; Aad = N[C@@H](CCCC(=O)O)C(=O)O; Orn = NCCC[C@H](N)C(=O)O; Dab = NCC[C@H](N)C(=O)O; Dap = NC[C@H](N)C(=O)O; Sar = CNCC(=O)O

Chain of recombinant human amylin 3 receptor (hAMYR3) (human), P30988 (P30988 25-474, chain 1 of 2): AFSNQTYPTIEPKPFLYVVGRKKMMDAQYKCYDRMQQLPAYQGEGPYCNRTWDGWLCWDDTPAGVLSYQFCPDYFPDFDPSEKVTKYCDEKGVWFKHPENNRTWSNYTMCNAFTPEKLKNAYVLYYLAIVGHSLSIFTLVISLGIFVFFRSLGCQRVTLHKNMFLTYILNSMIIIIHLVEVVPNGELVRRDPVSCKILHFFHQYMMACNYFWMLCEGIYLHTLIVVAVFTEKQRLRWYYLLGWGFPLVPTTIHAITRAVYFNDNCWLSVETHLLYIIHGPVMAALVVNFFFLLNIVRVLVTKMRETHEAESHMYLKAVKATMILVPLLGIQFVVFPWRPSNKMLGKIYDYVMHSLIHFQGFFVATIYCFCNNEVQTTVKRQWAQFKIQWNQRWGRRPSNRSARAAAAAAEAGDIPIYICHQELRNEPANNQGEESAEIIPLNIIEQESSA
Chain of recombinant human amylin 3 receptor (hAMYR3) (human), P30988 (O60896 24-148, chain 2 of 2, further chain): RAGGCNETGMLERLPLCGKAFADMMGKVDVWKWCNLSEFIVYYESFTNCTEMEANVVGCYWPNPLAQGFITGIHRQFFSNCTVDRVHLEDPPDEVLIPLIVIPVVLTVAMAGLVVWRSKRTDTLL
Chain of recombinant human calcitonin receptor (hCT-R) (human), P30988 (P30988 25-474): as the sequence (P30988 25-474, chain 1 of 2) above

B1: Compound 5 (peptide)
peptide: {C20 diacid-γGlu}-RDGTAT[Orn]ATERLAHFLQRSSF[Sar]A[NMeI]PSSTEVGSNT[Hyp]-NH2
modifications: lactam 2-7
SMILES: CC[C@H](C)[C@@H](C(=O)N1CCC[C@H]1C(=O)N[C@@H](CO)C(=O)N[C@@H](CO)C(=O)N[C@H](C(=O)N[C@@H](CCC(=O)O)C(=O)N[C@H](C(=O)NCC(=O)N[C@@H](CO)C(=O)N[C@@H](CC(N)=O)C(=O)N[C@H](C(=O)N1C[C@H](O)C[C@H]1C(N)=O)[C@@H](C)O)C(C)C)[C@@H](C)O)N(C)C(=O)[C@H](C)NC(=O)CN(C)C(=O)[C@H](Cc1ccccc1)NC(=O)[C@H](CO)NC(=O)[C@H](CO)NC(=O)[C@H](CCCNC(=N)N)NC(=O)[C@H](CCC(N)=O)NC(=O)[C@H](CC(C)C)NC(=O)[C@H](Cc1ccccc1)NC(=O)[C@H](Cc1c[nH]cn1)NC(=O)[C@H](C)NC(=O)[C@H](CC(C)C)NC(=O)[C@H](CCCNC(=N)N)NC(=O)[C@H](CCC(=O)O)NC(=O)[C@@H](NC(=O)[C@H](C)NC(=O)[C@@H]1CCCNC(=O)C[C@H](NC(=O)[C@H](CCCNC(=N)N)NC(=O)CC[C@H](NC(=O)CCCCCCCCCCCCCCCCCCC(=O)O)C(=O)O)C(=O)NCC(=O)N[C@@H]([C@@H](C)O)C(=O)N[C@@H](C)C(=O)N[C@@H]([C@@H](C)O)C(=O)N1)[C@@H](C)O
On to B1, for which the hAMYR3 EC50 [nM] (cAMP formation, 1321N1 cells expressing hAMYR3) in assay [1] amounted to 0.032 nM. Besides, in assay [2], the hCT-R EC50 [nM] (cAMP formation, 1321N1 cells expressing hCT-R) came to 0.114 nM.

B2: Ref. 1 (peptide)
peptide: {C20 diacid-γGlu}-RDGTAT[Orn]ATERLAHFLQRSSF[Sar]A[NMeI]PSSTEVGSNT[Hyp]-NH2
SMILES: CC[C@H](C)[C@@H](C(=O)N1CCC[C@H]1C(=O)N[C@@H](CO)C(=O)N[C@@H](CO)C(=O)N[C@H](C(=O)N[C@@H](CCC(=O)O)C(=O)N[C@H](C(=O)NCC(=O)N[C@@H](CO)C(=O)N[C@@H](CC(N)=O)C(=O)N[C@H](C(=O)N1C[C@H](O)C[C@H]1C(N)=O)[C@@H](C)O)C(C)C)[C@@H](C)O)N(C)C(=O)[C@H](C)NC(=O)CN(C)C(=O)[C@H](Cc1ccccc1)NC(=O)[C@H](CO)NC(=O)[C@H](CO)NC(=O)[C@H](CCCNC(=N)N)NC(=O)[C@H](CCC(N)=O)NC(=O)[C@H](CC(C)C)NC(=O)[C@H](Cc1ccccc1)NC(=O)[C@H](Cc1c[nH]cn1)NC(=O)[C@H](C)NC(=O)[C@H](CC(C)C)NC(=O)[C@H](CCCNC(=N)N)NC(=O)[C@H](CCC(=O)O)NC(=O)[C@@H](NC(=O)[C@H](C)NC(=O)[C@H](CCCN)NC(=O)[C@@H](NC(=O)[C@H](C)NC(=O)[C@@H](NC(=O)CNC(=O)[C@H](CC(=O)O)NC(=O)[C@H](CCCNC(=N)N)NC(=O)CC[C@H](NC(=O)CCCCCCCCCCCCCCCCCCC(=O)O)C(=O)O)[C@@H](C)O)[C@@H](C)O)[C@@H](C)O
Regarding B2, in assay [1], the hAMYR3 EC50 [nM] (cAMP formation, 1321N1 cells expressing hAMYR3) was found to be 17.1 nM. For the same molecule, the hCT-R EC50 [nM] (cAMP formation, 1321N1 cells expressing hCT-R) in assay [2] was 20.3 nM.

B3: Ref. 3 (peptide)
peptide: {C20 diacid-γGlu}-RDGTAT[Orn]ATERLA[Aad]FLQRSSF[Sar]A[NMeI]LSSTEVGSNT[Hyp]-NH2
SMILES: CC[C@H](C)[C@@H](C(=O)N[C@@H](CC(C)C)C(=O)N[C@@H](CO)C(=O)N[C@@H](CO)C(=O)N[C@H](C(=O)N[C@@H](CCC(=O)O)C(=O)N[C@H](C(=O)NCC(=O)N[C@@H](CO)C(=O)N[C@@H](CC(N)=O)C(=O)N[C@H](C(=O)N1C[C@H](O)C[C@H]1C(N)=O)[C@@H](C)O)C(C)C)[C@@H](C)O)N(C)C(=O)[C@H](C)NC(=O)CN(C)C(=O)[C@H](Cc1ccccc1)NC(=O)[C@H](CO)NC(=O)[C@H](CO)NC(=O)[C@H](CCCNC(=N)N)NC(=O)[C@H](CCC(N)=O)NC(=O)[C@H](CC(C)C)NC(=O)[C@H](Cc1ccccc1)NC(=O)[C@H](CCCC(=O)O)NC(=O)[C@H](C)NC(=O)[C@H](CC(C)C)NC(=O)[C@H](CCCNC(=N)N)NC(=O)[C@H](CCC(=O)O)NC(=O)[C@@H](NC(=O)[C@H](C)NC(=O)[C@H](CCCN)NC(=O)[C@@H](NC(=O)[C@H](C)NC(=O)[C@@H](NC(=O)CNC(=O)[C@H](CC(=O)O)NC(=O)[C@H](CCCNC(=N)N)NC(=O)CC[C@H](NC(=O)CCCCCCCCCCCCCCCCCCC(=O)O)C(=O)O)[C@@H](C)O)[C@@H](C)O)[C@@H](C)O
For the molecule B3, the hAMYR3 EC50 [nM] (cAMP formation, 1321N1 cells expressing hAMYR3) in assay [1] is 13.2 nM. Moreover, the hCT-R EC50 [nM] (cAMP formation, 1321N1 cells expressing hCT-R) in assay [2] is 18.2 nM.

B4: Ref. 2 (peptide)
peptide: {C20 diacid-γGlu}-RCGTATCATERLAHFLQRSSF[Sar]A[NMeI]LSSTEVGSNT[Hyp]-NH2
modifications: disulfide 2-7
SMILES: CC[C@H](C)[C@@H](C(=O)N[C@@H](CC(C)C)C(=O)N[C@@H](CO)C(=O)N[C@@H](CO)C(=O)N[C@H](C(=O)N[C@@H](CCC(=O)O)C(=O)N[C@H](C(=O)NCC(=O)N[C@@H](CO)C(=O)N[C@@H](CC(N)=O)C(=O)N[C@H](C(=O)N1C[C@H](O)C[C@H]1C(N)=O)[C@@H](C)O)C(C)C)[C@@H](C)O)N(C)C(=O)[C@H](C)NC(=O)CN(C)C(=O)[C@H](Cc1ccccc1)NC(=O)[C@H](CO)NC(=O)[C@H](CO)NC(=O)[C@H](CCCNC(=N)N)NC(=O)[C@H](CCC(N)=O)NC(=O)[C@H](CC(C)C)NC(=O)[C@H](Cc1ccccc1)NC(=O)[C@H](Cc1c[nH]cn1)NC(=O)[C@H](C)NC(=O)[C@H](CC(C)C)NC(=O)[C@H](CCCNC(=N)N)NC(=O)[C@H](CCC(=O)O)NC(=O)[C@@H](NC(=O)[C@H](C)NC(=O)[C@@H]1CSSC[C@H](NC(=O)[C@H](CCCNC(=N)N)NC(=O)CC[C@H](NC(=O)CCCCCCCCCCCCCCCCCCC(=O)O)C(=O)O)C(=O)NCC(=O)N[C@@H]([C@@H](C)O)C(=O)N[C@@H](C)C(=O)N[C@@H]([C@@H](C)O)C(=O)N1)[C@@H](C)O
Turning to B4, the hAMYR3 EC50 [nM] (cAMP formation, 1321N1 cells expressing hAMYR3) in assay [1] worked out at 0.003 nM. Further, in assay [2], the hCT-R EC50 [nM] (cAMP formation, 1321N1 cells expressing hCT-R) is 0.019 nM.

B5: Compound 51 (peptide)
peptide: {C20 diacid-γGlu}-REGTAT[Dab]ATERLAHFLQRSSF[Sar]A[NMeI]LSSTEVGSNT[Hyp]-NH2
modifications: lactam 2-7
SMILES: CC[C@H](C)[C@@H](C(=O)N[C@@H](CC(C)C)C(=O)N[C@@H](CO)C(=O)N[C@@H](CO)C(=O)N[C@H](C(=O)N[C@@H](CCC(=O)O)C(=O)N[C@H](C(=O)NCC(=O)N[C@@H](CO)C(=O)N[C@@H](CC(N)=O)C(=O)N[C@H](C(=O)N1C[C@H](O)C[C@H]1C(N)=O)[C@@H](C)O)C(C)C)[C@@H](C)O)N(C)C(=O)[C@H](C)NC(=O)CN(C)C(=O)[C@H](Cc1ccccc1)NC(=O)[C@H](CO)NC(=O)[C@H](CO)NC(=O)[C@H](CCCNC(=N)N)NC(=O)[C@H](CCC(N)=O)NC(=O)[C@H](CC(C)C)NC(=O)[C@H](Cc1ccccc1)NC(=O)[C@H](Cc1c[nH]cn1)NC(=O)[C@H](C)NC(=O)[C@H](CC(C)C)NC(=O)[C@H](CCCNC(=N)N)NC(=O)[C@H](CCC(=O)O)NC(=O)[C@@H](NC(=O)[C@H](C)NC(=O)[C@@H]1CCNC(=O)CC[C@H](NC(=O)[C@H](CCCNC(=N)N)NC(=O)CC[C@H](NC(=O)CCCCCCCCCCCCCCCCCCC(=O)O)C(=O)O)C(=O)NCC(=O)N[C@@H]([C@@H](C)O)C(=O)N[C@@H](C)C(=O)N[C@@H]([C@@H](C)O)C(=O)N1)[C@@H](C)O
As to B5, the hAMYR3 EC50 [nM] (cAMP formation, 1321N1 cells expressing hAMYR3) in assay [1] stood at 0.306 nM. Further, in assay [2], the hCT-R EC50 [nM] (cAMP formation, 1321N1 cells expressing hCT-R) was determined as 0.861 nM.

B6: Compound 50 (peptide)
peptide: {C20 diacid-γGlu}-R[Aad]GTAT[Dap]ATERLAHFLQRSSF[Sar]A[NMeI]LSSTEVGSNT[Hyp]-NH2
modifications: lactam 2-7
SMILES: CC[C@H](C)[C@@H](C(=O)N[C@@H](CC(C)C)C(=O)N[C@@H](CO)C(=O)N[C@@H](CO)C(=O)N[C@H](C(=O)N[C@@H](CCC(=O)O)C(=O)N[C@H](C(=O)NCC(=O)N[C@@H](CO)C(=O)N[C@@H](CC(N)=O)C(=O)N[C@H](C(=O)N1C[C@H](O)C[C@H]1C(N)=O)[C@@H](C)O)C(C)C)[C@@H](C)O)N(C)C(=O)[C@H](C)NC(=O)CN(C)C(=O)[C@H](Cc1ccccc1)NC(=O)[C@H](CO)NC(=O)[C@H](CO)NC(=O)[C@H](CCCNC(=N)N)NC(=O)[C@H](CCC(N)=O)NC(=O)[C@H](CC(C)C)NC(=O)[C@H](Cc1ccccc1)NC(=O)[C@H](Cc1c[nH]cn1)NC(=O)[C@H](C)NC(=O)[C@H](CC(C)C)NC(=O)[C@H](CCCNC(=N)N)NC(=O)[C@H](CCC(=O)O)NC(=O)[C@@H](NC(=O)[C@H](C)NC(=O)[C@@H]1CNC(=O)CCC[C@H](NC(=O)[C@H](CCCNC(=N)N)NC(=O)CC[C@H](NC(=O)CCCCCCCCCCCCCCCCCCC(=O)O)C(=O)O)C(=O)NCC(=O)N[C@@H]([C@@H](C)O)C(=O)N[C@@H](C)C(=O)N[C@@H]([C@@H](C)O)C(=O)N1)[C@@H](C)O
For the molecule B6, the hAMYR3 EC50 [nM] (cAMP formation, 1321N1 cells expressing hAMYR3) in assay [1] came out at 1.5 nM. The hCT-R EC50 [nM] (cAMP formation, 1321N1 cells expressing hCT-R) in assay [2] turned out to be 3.3 nM.

B7: Compound 1 (peptide)
peptide: {C20 diacid-γGlu}-RDGTAT[Dap]ATERLAHFLQRSSF[Sar]A[NMeI]LSSTEVGSNT[Hyp]-NH2
modifications: lactam 2-7
SMILES: CC[C@H](C)[C@@H](C(=O)N[C@@H](CC(C)C)C(=O)N[C@@H](CO)C(=O)N[C@@H](CO)C(=O)N[C@H](C(=O)N[C@@H](CCC(=O)O)C(=O)N[C@H](C(=O)NCC(=O)N[C@@H](CO)C(=O)N[C@@H](CC(N)=O)C(=O)N[C@H](C(=O)N1C[C@H](O)C[C@H]1C(N)=O)[C@@H](C)O)C(C)C)[C@@H](C)O)N(C)C(=O)[C@H](C)NC(=O)CN(C)C(=O)[C@H](Cc1ccccc1)NC(=O)[C@H](CO)NC(=O)[C@H](CO)NC(=O)[C@H](CCCNC(=N)N)NC(=O)[C@H](CCC(N)=O)NC(=O)[C@H](CC(C)C)NC(=O)[C@H](Cc1ccccc1)NC(=O)[C@H](Cc1c[nH]cn1)NC(=O)[C@H](C)NC(=O)[C@H](CC(C)C)NC(=O)[C@H](CCCNC(=N)N)NC(=O)[C@H](CCC(=O)O)NC(=O)[C@@H](NC(=O)[C@H](C)NC(=O)[C@@H]1CNC(=O)C[C@H](NC(=O)[C@H](CCCNC(=N)N)NC(=O)CC[C@H](NC(=O)CCCCCCCCCCCCCCCCCCC(=O)O)C(=O)O)C(=O)NCC(=O)N[C@@H]([C@@H](C)O)C(=O)N[C@@H](C)C(=O)N[C@@H]([C@@H](C)O)C(=O)N1)[C@@H](C)O
Regarding B7, the hAMYR3 EC50 [nM] (cAMP formation, 1321N1 cells expressing hAMYR3) in assay [1] turned out to be 9.3 nM. Moreover, in assay [2], the hCT-R EC50 [nM] (cAMP formation, 1321N1 cells expressing hCT-R) amounted to 13.6 nM.

Source of the values: patent US20180071366A1.
